Laboratory results as given in patent US20260265696A1, “HUMAN IPSC DERIVED AMELOBLASTS AND USES THEREOF” (UNIVERSITY OF WASHINGTON, priority 2021, published 2026).

Test system: hiPSCs (WTC-11) differentiating to ameloblasts (iAM)
Test: AMBN expression (QRT-PCR) in hiPSC-derived ameloblast (iAM) differentiation, day 10 to day 16, factors removed or added
Assay type: cell-based, human
Procedure: FIGS. 7A-7E: (FIG. 7A) Schematic of the 16-day differentiation protocol produced, which targets the identified signaling pathways utilizing growth factors and small molecules to transition through the ameloblast developmental trajectory. […] Each study was performed in triplicate, with error bars representing SEM. (FIG. 7C) The efficiency of each pathway activated in the differentiation from day 10 to day 16 were assessed by removing each agonist one at a time or adding FGFR2 mini binder to inhibit the FGFR2 pathway. AMBN expression was assessed in QRT-PCR, and each condition was performed in triplicate. Significance was determined by unpaired Student's t-test; ***p<0.001; ****p<0.0001; Graph error bars are the means±SEM.
To dissect which pathways were essential for the differentiation from day 10 to day 16, the process of elimination was used (FIG. 7C). […] It was hypothesized that the cells in culture secrete enough FGF ligands to saturate the receptors, and any exogenous ligands would have minimal effects. To test this hypothesis, a computationally designed protein was used, FGFR2 mini-binder (FGFR-mb), that specifically binds and inhibits the activity of the FGFR2 (Cao et al., 2022). […]
RNA was extracted using Trizol (Life Technologies) according to manufacturer's instructions. RNA samples were treated with Turbo DNase (Thermo Fisher Scientific) and quantified using Nanodrop ND-1000. […]

B1: BMP4: bone morphogenic protein-4 (protein, UniProt P12644 293-408, looked up)
Bone morphogenetic protein 4: SPKHHSQRARKKNKNCRRHSLYVDFSDVGWNDWIVAPPGYQAFYCHGDCPFPLADHLNSTNHAIVQTLVNSVNSSIPKACCVPTELSAISMLYLDEYDKVVLKNYQEMVVEGCGCR
Which “expression of AMBN when the factor is removed” value (factor removed independently from differentiation day 10 to day 16, compared to when all factors are present) does the source give for B1 here?
The value was “significantly reduced to less than half”.

B2: FGFR2-binder: computationally designed protein that specifically binds and inhibits the activity of the FGFR2; binding sequence SEQ ID NO. 1 (protein)
chain: MGDRRKEMDKVYRTAYKRITSTPDKEKRKEVVKEATEQLRRIAKDEEEKKKAAYMISFLKTLGLEHHHHHH
With B2 as the molecule, how does the “expression of AMBN on adding FGFR2 mini-binder” value (50 nM FGFR-mb added at day 14, harvested at day 16) read?
The value was “almost totally abolished”.
